The values below come from publication PMC4880913, “Solution structure and binding specificity of the p63 DNA binding domain”.

Data set [1] addresses T1, p63-DBD L210E (UniProt Q9H3D4 153-388, L249E).
T1 sequence: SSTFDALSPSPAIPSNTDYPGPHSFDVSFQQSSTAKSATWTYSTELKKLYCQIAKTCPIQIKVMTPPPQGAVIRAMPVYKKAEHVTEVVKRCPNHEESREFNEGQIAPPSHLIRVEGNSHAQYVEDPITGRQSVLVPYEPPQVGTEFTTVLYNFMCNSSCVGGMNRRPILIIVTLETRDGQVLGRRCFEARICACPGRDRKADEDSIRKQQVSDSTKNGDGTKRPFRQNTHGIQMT
Put plainly: fluorescence polarization; FP: 100 nM 5'-fluorescein dsDNA, 10 mM sodium phosphate pH 7.2, 1 mM DTT, temperature not stated; NMR: 1 mM sodium phosphate pH 7.2, 100 mM NaCl, 5 mM DTT, 303. The following applies: protein: recombinant; label: 5'-fluorescein; blunt. On the technique in general: In fluorescence polarisation assays a small probe gives low polarisation when free and higher when bound to something large.

Data set [2] addresses p53-DBD (UniProt P04637 94-312). The data set is described as above. The following applies: protein: recombinant; chain copies: 2; label: 5'-fluorescein; blunt.
In data set [3] the target is T2, p63-DBD (UniProt Q9H3D4 153-388).
T2 sequence: T1 sequence with E97L
Put plainly: NMR titration (1H-15N TROSY); 100 mM NaCl; FP: 100 nM 5'-fluorescein dsDNA, 10 mM sodium phosphate pH 7.2, 1 mM DTT, temperature not stated; NMR: 1 mM sodium phosphate pH 7.2, 100 mM NaCl, 5 mM DTT, 303. The following applies: protein: recombinant; tags: His-tag removed with thrombin (pET28a construct); blunt.

Substitutions are numbered along the chain they refer to.

Chain of p53-DBD (P04637 94-312): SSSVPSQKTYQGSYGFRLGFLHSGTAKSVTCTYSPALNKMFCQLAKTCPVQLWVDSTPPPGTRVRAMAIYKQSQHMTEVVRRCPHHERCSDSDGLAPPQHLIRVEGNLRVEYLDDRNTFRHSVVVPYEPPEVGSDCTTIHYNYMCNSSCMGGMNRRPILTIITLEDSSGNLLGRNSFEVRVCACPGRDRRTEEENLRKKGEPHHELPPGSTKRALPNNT

B1: con2 x 5 (FP) (dsDNA)
DNA 1: TTAGGACATGTCCATC
DNA 2: GATGGACATGTCCTAA
With B1, the binding result in data set [1] and in data set [2] was “binds” throughout.

B2: con2 x 5 (NMR) (dsDNA)
DNA 1: TTAGGACATGTCCATC
DNA 2: GATGGACATGTCCTAA
On to B2, for which the binding result in data set [3] is reported as “binds”.
